Experimental data from IntAct's records for PubMed 22648170.

B1: Disabled homolog 2 (Mus musculus), P98078-1 (parent)
chain: MSNEVETSTTNGQPDQQAAPKAPSKKEKKKGSEKTDEYLLARFKGDGVKYKAKLIGIDDVPDARGDKMSQDSMMKLKGMAAAGRSQGQHKQRIWVNISLSGIKIIDEKTGVIEHEHPVNKISFIARDVTDNRAFGYVCGGEGQHQFFAIKTGQQAEPLVVDLKDLFQVIYNVKKKEEDKKKVEEANKAEENGSEALMTLDDQANKLKLGVDQMDLFGDMSTPPDLNSPTESKDILLVDLNSEIDTNQNSLRENPFLTNGVTSCSLPRPKPQASFLPENAFSANLNFFPTPNPDPFRDDPFAQPDQSAPSSFDSLTSPDQKKASLSSSSTPQSKGPLNGDTDYFGQQFDQLSNRTGKPEAQGGPWPYPSSQTQQAVRTQNGVSEREQNGFHIKSSPNPFVGSPPKGLSVPNGVKQDLESSVQSSAHDSIAIIPPPQSTKPGRGRRTAKSSANDLLASDIFASEPPGQMSPTGQPAVPQSNFLDLFKGNAPAPVGPLVGLGTVPVTPPQAGPWTPVVYSPSTTVVPGAIISGQPPSFRQPLVFGTTPAVQVWNQSPSFATPASPPPPTVWCPTTSVAPNAWSSTSPLGNPFQSNNIFPPPTMSTQSSPQPMMSSVLATPPQPPPRNGPLKDIPSDAFTGLDPLGDKEVKEVKEMFKDFQLRQPPLVPSRKGETPPSGTSSAFSSYFNNKVGIPQEHVDHDDFDANQLLNKINEPPKPAPRQGVLLGTKSADNSLENPFSKGFSSSNPSVVSQPASSDPHRSPFGNPFA
partner: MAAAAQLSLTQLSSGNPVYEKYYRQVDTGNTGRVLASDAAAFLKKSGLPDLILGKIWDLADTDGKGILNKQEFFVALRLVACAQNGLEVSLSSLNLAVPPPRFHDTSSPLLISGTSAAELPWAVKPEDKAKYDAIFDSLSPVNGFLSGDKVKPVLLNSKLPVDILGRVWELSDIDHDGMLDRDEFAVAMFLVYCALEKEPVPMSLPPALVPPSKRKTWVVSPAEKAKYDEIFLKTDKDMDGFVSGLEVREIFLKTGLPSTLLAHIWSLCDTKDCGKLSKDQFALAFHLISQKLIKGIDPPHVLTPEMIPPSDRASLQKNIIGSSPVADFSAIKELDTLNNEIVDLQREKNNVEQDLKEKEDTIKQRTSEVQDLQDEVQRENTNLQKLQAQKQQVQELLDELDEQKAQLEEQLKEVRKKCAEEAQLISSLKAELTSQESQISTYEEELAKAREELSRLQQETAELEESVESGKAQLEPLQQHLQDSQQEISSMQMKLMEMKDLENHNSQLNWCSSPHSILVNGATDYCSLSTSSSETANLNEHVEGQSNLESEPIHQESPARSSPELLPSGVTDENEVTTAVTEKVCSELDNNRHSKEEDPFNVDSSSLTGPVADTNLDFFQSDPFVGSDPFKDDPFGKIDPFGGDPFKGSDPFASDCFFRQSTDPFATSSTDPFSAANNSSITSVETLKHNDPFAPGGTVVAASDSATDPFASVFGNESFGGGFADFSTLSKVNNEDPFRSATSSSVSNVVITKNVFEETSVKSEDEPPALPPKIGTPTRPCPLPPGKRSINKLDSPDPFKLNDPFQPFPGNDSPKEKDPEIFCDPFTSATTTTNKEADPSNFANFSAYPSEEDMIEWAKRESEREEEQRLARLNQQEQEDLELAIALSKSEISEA
B2: Disabled homolog 2 (Mus musculus), P98078-1 (parent)
chain: B1 chain

Variants of: B1
Details: with eps15_human EPS15, P42566

effect of a mutation on the interaction | Variant
disrupting interaction | F589V;F736V;F765V

Variants of: B2
Details: with itsn1_mouse Itsn1, Q9Z0R4
Chain of itsn1_mouse Itsn1, Q9Z0R4 (Q9Z0R4 whole entry): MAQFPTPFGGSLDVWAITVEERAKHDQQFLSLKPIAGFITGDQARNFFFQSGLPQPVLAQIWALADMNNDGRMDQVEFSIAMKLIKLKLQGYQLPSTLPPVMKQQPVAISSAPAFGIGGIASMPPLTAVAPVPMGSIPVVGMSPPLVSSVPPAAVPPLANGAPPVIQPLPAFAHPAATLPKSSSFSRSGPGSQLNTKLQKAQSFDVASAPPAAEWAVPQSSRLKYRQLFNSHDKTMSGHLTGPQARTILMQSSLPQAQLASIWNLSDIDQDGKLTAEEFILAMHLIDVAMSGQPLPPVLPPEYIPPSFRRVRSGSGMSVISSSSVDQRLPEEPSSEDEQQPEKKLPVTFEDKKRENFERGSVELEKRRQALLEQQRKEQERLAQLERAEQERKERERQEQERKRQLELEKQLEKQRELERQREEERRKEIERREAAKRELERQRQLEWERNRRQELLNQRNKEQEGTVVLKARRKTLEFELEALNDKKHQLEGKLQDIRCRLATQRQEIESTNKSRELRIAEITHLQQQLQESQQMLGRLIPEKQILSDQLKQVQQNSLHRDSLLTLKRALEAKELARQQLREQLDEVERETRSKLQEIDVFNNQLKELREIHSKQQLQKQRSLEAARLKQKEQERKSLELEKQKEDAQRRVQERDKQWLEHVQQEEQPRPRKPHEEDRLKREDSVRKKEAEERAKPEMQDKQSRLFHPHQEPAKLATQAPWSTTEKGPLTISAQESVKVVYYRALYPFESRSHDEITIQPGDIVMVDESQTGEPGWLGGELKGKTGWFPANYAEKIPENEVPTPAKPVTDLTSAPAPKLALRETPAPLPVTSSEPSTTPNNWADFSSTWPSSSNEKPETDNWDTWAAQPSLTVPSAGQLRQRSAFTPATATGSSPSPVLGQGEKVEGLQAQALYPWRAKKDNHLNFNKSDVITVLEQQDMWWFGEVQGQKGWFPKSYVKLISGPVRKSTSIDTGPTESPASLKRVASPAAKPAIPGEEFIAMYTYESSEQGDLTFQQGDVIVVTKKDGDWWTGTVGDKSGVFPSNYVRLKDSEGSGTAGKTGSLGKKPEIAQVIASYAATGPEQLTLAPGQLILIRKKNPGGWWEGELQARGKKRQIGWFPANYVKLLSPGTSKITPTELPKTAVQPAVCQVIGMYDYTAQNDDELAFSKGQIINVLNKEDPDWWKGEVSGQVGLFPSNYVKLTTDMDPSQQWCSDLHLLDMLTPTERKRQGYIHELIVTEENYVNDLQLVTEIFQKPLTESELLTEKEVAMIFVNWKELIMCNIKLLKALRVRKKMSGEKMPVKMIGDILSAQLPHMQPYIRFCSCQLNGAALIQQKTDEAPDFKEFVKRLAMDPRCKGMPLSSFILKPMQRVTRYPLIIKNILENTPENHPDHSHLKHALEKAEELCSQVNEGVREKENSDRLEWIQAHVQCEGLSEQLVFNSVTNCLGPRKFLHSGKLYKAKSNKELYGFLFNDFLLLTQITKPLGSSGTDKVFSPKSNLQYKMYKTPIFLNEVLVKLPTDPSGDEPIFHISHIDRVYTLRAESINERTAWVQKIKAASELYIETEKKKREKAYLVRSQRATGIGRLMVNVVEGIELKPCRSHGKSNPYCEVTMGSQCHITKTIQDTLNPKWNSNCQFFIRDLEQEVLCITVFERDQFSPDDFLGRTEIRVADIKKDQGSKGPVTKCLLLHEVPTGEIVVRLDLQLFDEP

effect of a mutation on the interaction | Variant
decreasing interaction | F589V;F736V;F765V
decreasing interaction | F255V;F398V
disrupting interaction | F255V;F398V;F589V;F736V;F765V
